Assay [1] addresses T1, human CD47-Fc (human, UniProt Q08722 19-139).
T1 construct: Recombinant CD47-Fc; also called hCD47-Fc; not shown: Fc part
Kind of assay: direct specificity ELISA, IgG 1 µg/ml, FIG. 5. An excerpt: (§1) FIG. 5A-FIG. 5G. Binding specificity analyses for prioritized lead clones. Off-target homologue binding risk for mVH/mVL in IgG1 (FIG. 5A) and IgG1null (FIG. 5B) format and library-derived leads A-D5 (FIG. 5C), VH-A1/VL-B1 (FIG. 5D), F-E7 (FIG. 5E), D-H3 (FIG. 5F), and G-B6 (FIG. 5G) in IgG1null format was examined by direct ELISA on CD47-Fc orthologs and a panel of 14 human immunoglobulin superfamily proteins as labelled on each X-axis (“B” refers to blank). Binding to human, cyno and murine CD47-Fcs (h/c/mCD47-Fc) was performed at an IgG concentration of 1 μg/ml. Binding to all other proteins was performed at an IgG concentration of 10 μg/ml.
(§2) To ensure that that lead clones had not suffered from loss of target specificity during the mutation and reselection process; lead and control IgG1 clones were tested for binding to a panel of 14 purified human proteins from the immunoglobulin superfamily (FIG. 5).
Background: An ELISA detects its analyte on a solid surface through an enzyme-linked reagent.

In assay [2] the target is T2, cynomolgus monkey CD47-Fc (cynomolgus monkey, UniProt A0A2K5X523 19-139).
T2 construct: Recombinant CD47-Fc; also called cyno CD47-Fc; cCD47-Fc; not shown: Fc part
Kind of assay: direct specificity ELISA, IgG 1 µg/ml, FIG. 5.
From the text: as §1, §2

Assay [3] concerns the target T3, mouse CD47-Fc (mouse, UniProt Q61735 19-140, limits assumed).
T3 construct: Recombinant CD47-Fc; also called mCD47-Fc; mCD37-Fc [sic]; not shown: Fc part
T3 sequence (looked up): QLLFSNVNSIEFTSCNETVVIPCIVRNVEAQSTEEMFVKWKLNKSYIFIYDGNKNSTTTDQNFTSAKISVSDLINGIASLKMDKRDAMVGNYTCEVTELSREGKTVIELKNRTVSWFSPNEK
Kind of assay: direct specificity ELISA, IgG 1 µg/ml, FIG. 5.
From the text: as §1, §2

Assay [4] deals with T4, cynomolgus monkey CD47 on transfected CHO-K1 cells (cynomolgus monkey, UniProt A0A5F8AK49 19-323 (rhesus entry)).
T4 construct: whole, on cells; also called cyno CD47+ cells
In words: flow cytometry, cyno CD47-transfected CHO-K1, FIG. 6. The method, then:
(§3) FIG. 6A-FIG. 6C. Flow cytometric binding to human and cyno CD47+CHO-K1 cells. Commercial anti-CD47 antibody MS1991, human IgG1 (“I IgG1”) and IgG4 (“I IgG4”) Isotype controls, lead library-derived IgGs in both IgG1null (“IgG1N”) and IgG4(S228P) formats were examined for specific binding on cyno-transfected CHO-K1 cells (FIG. 6A), human-transfected CHO-K1 cells (FIG. 6B), and wild type (wt, i.e. untransfected) CHO-K1 cells (FIG. 6C). IgGs were tested at concentrations ranging from 24-100,000 ng/ml. Concentration-dependent binding was observed against both human and cyno cell lines for all CD47-specific antibodies but not Isotype controls.
(§4) Antibodies to CD47 were analysed for concentration-dependent binding at the cell surface via flow cytometry. CHO-K1 cells were stably transfected with either human, mouse or cyno CD47 full-length cDNAs. Anti-CD47 IgGs mVH/mVL, VH-A1/VL-B1, A-D5, G-B6, F-E7 and D-H3, and an isotype control IgG1 were then all tested in IgG1null and IgG4(S228P) formats, alongside a commercial mouse anti-human CD47 monoclonal MS1991, over a concentration range of 100,000-24 ng/ml for binding to human, cyno or wild type control (‘wt’, i.e. untransfected) CHO-K1.
Background: In flow cytometry, cells or beads pass a laser one at a time.

In assay [5] the target is T5, human CD47 on cells (human CD47-transfected CHO-K1; HL60) (human, UniProt Q08722 19-323).
T5 construct: whole, on cells; also called human CD47+ cells; human CD47+HL60 cells
Kind of assay: flow cytometry, human CD47-transfected CHO-K1, FIG. 6. How it is done:
as §3, §4

The target in assay [6] is T1, human CD47-Fc. In words: direct titration ELISA, FIG. 11A. How it is done: (§5) FIG. 11A-FIG. 11C. Direct titration ELISA for A-D5.4-derived designer IgGs binding to human, mouse and cyno CD47-Fc proteins. Chimeric anti-CD47 (mVH/mVL), designer A-D5.4-derived clones in human IgG1 null format were titrated (in μg/ml) in a direct binding ELISA against human (FIG. 11A), cyno (FIG. 11B) and mouse (FIG. 11C) CD47-Fc proteins. […] In the figure legends, “IgG1NI” refers to IgG1 null isotype.
(§6) To coat Greiner Bio-One High bind ELISA plates, target proteins were diluted to 1 μg/ml in carbonate buffer and added at 100 μl per well, at 4° C., o/n. Coated plates were washed 3× with PBS pH7.4, blocked with 1% BSA in PBS (380 μl/well) for 1 hr at RT, then washed 3× with PBS-Tween 20 (PBST). CD47 antibodies (100 μl/well; diluted in PBST) were then added and then incubated 1 hr at RT. Plates were then washed 3× with PBST and goat anti-human kappa chain-HRP added (100 μl/well) at RT, for 1 hr. Plates were then washed 3× with PBST and twice with PBS before the addition of 100 μl TMB per well. Reactions were stopped by adding 100 μl 2M H₂SO₄/well and OD was read on a plate reader at 450 nm.

The target in assay [7] is T3, mouse CD47-Fc. In words: direct titration ELISA, FIG. 11C. How it is done:
as §5, §6

Assay [8] deals with T1, human CD47-Fc. In words: direct specificity ELISA, IgG 10 µg/ml, FIG. 13.
Assay [9] concerns the target T2, cynomolgus monkey CD47-Fc. Kind of assay: direct specificity ELISA, IgG 10 µg/ml, FIG. 13.
Assay [10] addresses T3, mouse CD47-Fc. Kind of assay: direct specificity ELISA, IgG 10 µg/ml, FIG. 13.
The target in assay [11] is T1, human CD47-Fc. In words: direct titration ELISA, FIG. 9A. The method, then:
(§7) FIG. 9A-FIG. 9C. Direct titration ELISA for designer IgGs binding to human, mouse and cyno CD47-Fc proteins. Chimeric anti-CD47 (mVH/mVL), designer A-D5-derived clones in human IgG1null format were titrated (in μg/ml) in a direct binding ELISA against human (FIG. 9A), cyno (FIG. 9B) and mouse (FIG. 9C) CD47-Fc proteins. […] In the figure legend, “IgG1NI” refers to IgG1 null isotype.
as §6

Assay [12] concerns the target T3, mouse CD47-Fc. Kind of assay: direct titration ELISA, FIG. 9C. The method, then: as §7, §6

Changes are numbered by the printed parent chain. Names may count otherwise. Where only a bound is given, the exact number is not on record here.

B1: G-B6 in human IgG1null format (antibody, V domains shown)
VH: EVQLVQSGAEVKKPGESLKISCKGSGYSFTNYYIFWVRQMPGKGLEWIGDINPVNGDTNFSPSFQGQVTISADKSISTAYLQWSSLKASDTAMYYCARGGYTMDKWGQGTLVTVSS
VL: DIVMTQSPLSLPVTPGEPASISCRSSQSLVHSNGYTYLHWYLQKPGQSPQLLIYKGSYRASGVPDRFSGSGSGTDFTLKISRVEAEDVGVYYCSQNTQTPRTFGQGTKVEIK
notes: IgG1null (L234A/L235A/G237A), kappa
As for B1, the OD450 nm in the assay with human CD47-Fc [1] was greater than 2 OD450 nm; in [2], greater than 2 OD450 nm; in the assay with mouse CD47-Fc [3], greater than 1.25 OD450 nm. The “maximum MFI, fold over untransfected CHO-K1” value (“maximum MFI, fold” below) in [4] and in assay [5] was greater than 10 fold throughout.

B2: A-D5.11 in human IgG1null format (antibody, V domains shown)
VH: B1 VH with I48M, D50I, N55D, F60Y, S61N, K105R
VL: B1 VL with V30L, T36N, G56V, Y58N, A60L, S94F, Q98H
notes: Designer clone from A-D5.4; IgG1null
As to B2, the binding result with human CD47-Fc [6] and with mouse CD47-Fc [7] was “binds” each time.

B3: A-D5.4 in human IgG1null format (antibody, V domains shown)
VH: B1 VH with S28T, I48M, D50I, N55D, F60Y, S61N, K105R
VL: B1 VL with V30L, T36N, G56V, Y58N, A60L, S94F, Q98H
notes: Designer clone from A-D5; IgG1null; also called A-D.4
For B3, the OD450 nm (with human CD47-Fc [8]; in assay [9]; in the assay with mouse CD47-Fc [10]) was greater than 2 OD450 nm throughout.

B4: A-D5.8 in human IgG1null format (antibody, V domains shown)
VH: B1 VH with S28T, I48M, D50I, N55D, F60Y, S61N, K105R
VL: B1 VL with V30L, N33Q, G56V, Y58N, A60L, S94F, Q98H
notes: Designer clone from A-D5; IgG1null
With B4, the binding result with human CD47-Fc [11] and in the assay with mouse CD47-Fc [12] was “binds” throughout.

B5: D-H3 in human IgG1null format (antibody, V domains shown)
VH: B1 VH with I48M, F60Y, M103P, K105Y
VL: B1 VL with V30L, T36N, Y58N, A60F, T97L, Q98H, T99V
notes: as for B1
On to B5, for which the OD450 nm with human CD47-Fc [1] was greater than 2 OD450 nm; in [2], greater than 2 OD450 nm; with mouse CD47-Fc [3], greater than 1.25 OD450 nm. For the same molecule, the “maximum MFI, fold” value in [4] and in assay [5] was greater than 10 fold throughout.

B6: F-E7 in human IgG1null format (antibody, V domains shown)
VH: B1 VH with I48M, D50I, F60Y, S61N, D104G
VL: B1 VL with Y35N, H39D, A60F, N96A, Q98H
notes: as for B1
With B6, the OD450 nm with human CD47-Fc [1] is greater than 2 OD450 nm; in assay [2], greater than 2 OD450 nm; with mouse CD47-Fc [3], greater than 1.25 OD450 nm. Besides, the “maximum MFI, fold” value in [4] and in [5] was greater than 10 fold each time.

B7: A-D5.2 in human IgG1null format (antibody, V domains shown)
VH: B1 VH with I48M, D50I, N55D, N59R, F60Y, S61N, K105R
VL: B1 VL with V30L, G56V, Y58N, A60L, S94F, Q98H
notes: as for B4
Turning to B7, the binding result with human CD47-Fc [11] and with mouse CD47-Fc [12] was “binds” each time.

B8: A-D5.14 in human IgG1null format (antibody, V domains shown)
VH: B1 VH with I48M, D50I, N55D, N59R, F60Y, K105R
VL: B1 VL with V30L, N33S, T36N, G56V, Y58N, A60L, S94F, Q98H
notes: as for B2
For the molecule B8, the binding result with human CD47-Fc [6] and with mouse CD47-Fc [7] was “binds” each time.

B9: A-D5 in human IgG1null format (antibody, V domains shown)
VH: B1 VH with S28T, I48M, D50I, N55D, F60Y, S61N, K105R
VL: B1 VL with V30L, G56V, Y58N, A60L, S94F, Q98H
notes: IgG1null (IgG1 L234A/L235A/G237A), kappa; also called IgG1 A-D5N
For the molecule B9, the OD450 nm in the assay with human CD47-Fc [1] was greater than 2 OD450 nm; in [2], greater than 2 OD450 nm; in the assay with mouse CD47-Fc [3], greater than 1.25 OD450 nm. The “maximum MFI, fold” value in assay [4] and in assay [5] was greater than 10 fold each time.

B10: A-D5.15 in human IgG1null format (antibody, V domains shown)
VH: B1 VH with I48M, D50I, N55D, N59R, F60Y, K105R
VL: B1 VL with V30L, N33G, T36N, G56V, Y58N, A60L, S94F, Q98H
notes: as for B2
For the molecule B10, the binding result with human CD47-Fc [6] and with mouse CD47-Fc [7] was “binds” each time.

B11: A-D5.17 in human IgG1null format (antibody, V domains shown)
VH: B1 VH with I48M, D50I, N55D, N59R, F60Y, K105R
VL: B1 VL with V30L, N33T, T36N, G56V, Y58N, A60L, S94F, Q98H
notes: as for B2
Turning to B11, the binding result in the assay with human CD47-Fc [6] and with mouse CD47-Fc [7] was “binds” throughout.

B12: A-D5.13 in human IgG1null format (antibody, V domains shown)
VH: B1 VH with I48M, D50I, N55D, N59R, F60Y, K105R
VL: B1 VL with V30L, T36N, G56V, Y58N, A60L, S94F, Q98H
notes: as for B2
Take B12: the binding result with human CD47-Fc [6] and with mouse CD47-Fc [7] was “binds” in each case.

B13: A-D5.12 in human IgG1null format (antibody, V domains shown)
VH: B1 VH with I48M, D50I, N55D, N59R, F60Y, S61N, K105R
VL: B1 VL with V30L, T36N, G56V, Y58N, A60L, S94F, Q98H
notes: as for B2
Regarding B13, the binding result with human CD47-Fc [6] and with mouse CD47-Fc [7] was “binds” each time.

B14: A-D5.18 in human IgG1null format (antibody, V domains shown)
VH: B1 VH with I48M, D50I, N55D, N59R, F60Y, K105R
VL: B1 VL with V30L, G34A, T36N, G56V, Y58N, A60L, S94F, Q98H
notes: as for B2
Regarding B14, the binding result with human CD47-Fc [6] and with mouse CD47-Fc [7] was “binds” each time.

B15: mVH/mVL (chimeric VxP037) in human IgG1null format (antibody, V domains shown)
VH: EVQLQQFGAELVKPGASMKLSCKASGYTFTNYYVFWVKQRPGQGLEWIGDINPVNGDTNFNEKFKNKATLTVDKSSTTTYLQLSSLTSEDSAVYYCTRGGYTMDYWGQGTLVTVSS
VL: DVVMTQTPLSLSVSLGDQASISCRSSQSLVHSNGNTYLHWYLQKPGQSPKLLIYKVSYRFSGVPDRFSGSGSGTDFTLKISRVEAEDLGVYFCSQNTHVPRTFGQGTKVEIK
notes: Murine v-domains on human IgG1null (IgG1 L234A/L235A/G237A), kappa; also called VP037; Chimeric anti-CD47
In the case of B15, the “maximum MFI, fold” value in [4] and in [5] was greater than 10 fold in each case. In the assay with mouse CD47-Fc [7], the binding result was “binds”.

The record behind these values is patent US20200277375A1 (ULTRAHUMAN FOUR, published 2020).
